Source: publication PMC10197130, “Disulfide-Bond-Induced Structural Frustration and Dynamic Disorder in a Peroxiredoxin from MAS NMR” (Journal of the American Chemical Society, 2023)

How the values were obtained:
[1] = target: Tsa1 S78D mutant (yeast); test: SEC; size-exclusion chromatography of the S78D mutant (Figure S2C)
[2] = target: the molecule itself; test: methyl-detected diffusion-ordered NMR spectroscopy (DOSY); solution, deuterated Ile/Leu/Val methyl-labeled sample, series from 25 to 60 °C; temperatures above the midpoint at ca. 315 K
[3] = target: the molecule itself; test: SEC-MALS; Superdex Increase 200 10/300 GL, phosphate buffer (PBS or 50 mM KPi KCl pH 7.4), RT (ca. 297 K); decamer also reinjected alone, with TCEP and after H2O2 treatment

Molecule	stoichiometry N [1]	stoichiometry N [2]	stoichiometry N [3]
Tsa1 S78D mutant (enzyme)	2		
Tsa1 wild type (2-Cys peroxiredoxin from yeast) (enzyme, UniProt P34760 1-196, looked up, disulfide bond between Cys47 (CP) of one subunit and Cys170 (CR) of another subunit in the oxidized state (as purified or after H2O2); free thiols in the reduced state (TCEP or DTT), Tsa1, 2-Cys peroxiredoxin from yeast, wild type, plasmid pET19b-Tsa1 corresponding to UniProt entry P34760, codon-optimized; No removal of the His tag is described; Decamer of five dimers (ca. 216 kDa) at ambient temperature; also called Tsa1^WT; Tsa1^ox; source: E. coli BL21(DE3), purified (Ni2+-HisTrap, gel filtration on Superdex S200 increase); copies: 10) MVAQVQKQAPTFKKTAVVDGVFDEVSLDKYKGKYVVLAFIPLAFTFVCPTEIIAFSEAAKKFEEQGAQVLFASTDSEYSLLAWTNIPRKEGGLGPINIPLLADTNHSLSRDYGVLIEEEGVALRGLFIIDPKGVIRHITINDLPVGRNVDEALRLVEAFQWTDKNGTVLPCNWTPGAATIKPTVEDSKEYFEAANK		2	10
